From paper PMC9822811 (2023) come the findings set out here.

In the experiment the target is recombinant SARS-CoV-2 RBD of original WT strain (SARS-CoV-2, UniProt P0DTC2 319-541). Description: SPR. On the technique in general: SPR reads the build-up and loss of mass on a sensor chip optically.

B1: REGN10987 (antibody, V domains shown)
VH: QVQLVESGGGVVQPGRSLRLSCAASGFTFSNYAMYWVRQAPGKGLEWVAVISYDGSNKYYADSVKGRFTISRDNSKNTLYLQMNSLRTEDTAVYYCASGSDYGDYLLVYWGQGTLVTVSS
VL: QSALTQPASVSGSPGQSITISCTGTSSDVGGYNYVSWYQQHPGKAPKLMIYDVSKRPSGVSNRFSGSKSGNTASLTISGLQSEDEADYYCNSLTSISTWVFGGGTKLTVL
With B1, the Kd – broadly, a measure of binding affinity in units of concentration – amounted to 1.62 nM.
